Results published in patent publication US20140045930.

Legend:
[1] = target: T1, octameric peptide AVSEATIR
T1 chain: AVSEATIR

[2] = target: T2, peptide AQYPQEVITTVRG (PhoP)
T2 chain: AQYPQEVITTVRG

[3] = target: T3, peptide ATVAKCVEALKERFQASLRD (PheT)
T3 chain: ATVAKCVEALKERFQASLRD

[4] = target: T4, peptide ELNREQKWQMMLSKSMRR (CaiF)
T4 chain: ELNREQKWQMMLSKSMRR

[5] = target: T5, peptide KHVQALDLSMRFR (Nicotinate-nucleotide diphosphorylase)
T5 chain: KHVQALDLSMRFR

[6] = target: T6, peptide KLLRLFFPLSLRV (PhoQ)
T6 chain: KLLRLFFPLSLRV

[7] = target: T7, peptide KTPLAVLQSTLRS (PhoQ)
T7 chain: KTPLAVLQSTLRS

[8] = target: T8, peptide KTPLAVLQSTLRSLR (PhoQ)
T8 chain: KTPLAVLQSTLRSLR

[9] = target: T9, peptide KWQMMLSKSMRR (CaiF)
T9 chain: KWQMMLSKSMRR

[10] = target: T10, peptide LAVLQSTLRSLRS (PhoQ)
T10 chain: LAVLQSTLRSLRS

[11] = target: T11, peptide LLRLFFPLSLRV (PhoQ)
T11 chain: LLRLFFPLSLRV

[12] = target: T12, peptide LTELNREQKWQMMLSKSMRR (CaiF)
T12 chain: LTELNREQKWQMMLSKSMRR

[13] = target: T13, peptide LTHSLKTPLAVLQSTLRS (PhoQ)
T13 chain: LTHSLKTPLAVLQSTLRS

[14] = target: T14, peptide NTHRGMGYSLRGL (CreB)
T14 chain: NTHRGMGYSLRGL

[15] = target: T15, peptide RLLPAVSEATIRRL
T15 chain: RLLPAVSEATIRRL

[16] = target: T16, peptide VAKCVEALKERFQASLRD (PheT)
T16 chain: VAKCVEALKERFQASLRD

[17] = target: T17, peptide VEALKERFQASLRD (Phenylalanyl-tRNA synthetase)
T17 chain: VEALKERFQASLRD

B1: Recombinant YcfD, N-terminally hexa-His tagged (E. coli) (protein)
chain: MEYQLTLNWPDFLERHWQKRPVVLKRGFNNFIDPISPDELAGLAMESEVDSRLVSHQDGKWQVSHGPFESYDHLGETNWSLLVQAVNHWHEPTAALMRPFRELPDWRIDDLMISFSVPGGGVGPHLDQYDVFIIQGTGRRRWRVGEKLQMKQHCPHPDLLQVDPFEAIIDEELEPGDILYIPPGFPHEGYALENAMNYSVGFRAPNTRELISGFADYVLQRELGGNYYSDPDVPPRAHPADVLPQEMDKLREMMLELINQPEHFKQWFGEFISQSRHELDIAPPEPPYQPDEIYDALKQGEVLVRLGGLRVLRIGDDVYANGEKIDSPHRPALDALASNIALTAENFGDALEDPSFLAMLAALVNSGYWFFEG
position of hydroxylation (2D-NMR after incubation with YcfD) [1]: 2D-NMR analyses revealed the position of hydroxylation as at C-3 of the hydroxylated arginine-residue
% hydroxylation (+16 Da) [2]: 60%
% hydroxylation (+16 Da) [3]: 40%
% hydroxylation (+16 Da) [4]: 40%
% hydroxylation (+16 Da) [5]: 30%
% hydroxylation (+16 Da) [6]: 60%
% hydroxylation (+16 Da) [7]: 95%
% hydroxylation (+16 Da) [8]: 40%
% hydroxylation (+16 Da) [9]: 30%
% hydroxylation (+16 Da) [10]: 60%
% hydroxylation (+16 Da) [11]: 50%
% hydroxylation (+16 Da) [12]: 40%
% hydroxylation (+16 Da) [13]: 90%
% hydroxylation (+16 Da) [14]: 30%
+16Da mass shift (hydroxylation, MALDI-TOF MS) [15]: gave a +16Da mass shift upon incubation with YcfD in an Fe(II) and 2OG dependent manner
% hydroxylation (+16 Da) [16]: 50%
% hydroxylation (+16 Da) [17]: 40%
